Literature values as cited in paper PMC5580684.
Several values for one entry are separate records, joined by “and”; a condition that tells them apart may be missing. Equal entries are not always repeated.

Molecular target: DNA polymerase beta (Homo sapiens) (UniProt P06746)

Kd: 300 µM and 100 µM
Substance: XRCC1 NTD (from UniProt P18887)
